Data on 63 variants can be found in the MegaScale stability set (Tsuboyama et al. 2023).

The labels stand for the following.
B1: EHEE_rd2_0601 (parent)
chain: TYTYKLTDEEASRRAEDEWRNRGYDVRVRNNNGTWEVEVR

The variants in the series derive from B1. As to the kind of experiment: folding stability dG (cDNA display proteolysis); higher = more stable. Conditions: PBS, room temperature.
Turning to TYTYKLTDEEASRRAEDEWRNRGYDVRVRNFNGTWEVEVR [N31F], the “folding stability dG” value turned out to be 1.42 kcal/mol.
With TYTYKLTDEEASRRAEDEWRNRGYDVRVRNINGTWEVEVR [N31I], the “folding stability dG” value came out at 1.76 kcal/mol.
As for TYTYKLTDEEASRRAEDEWRNRGYDVRVRNHNGTWEVEVR [N31H], the “folding stability dG” value is 1.32 kcal/mol.
The figure for TYTYKLTDEEASRRAEDEWRNRGYDVRVRNGNGTWEVEVR [N31G] is 0.546 kcal/mol; for TYTYKLTDEEASRRAEDEWRNRGYDVRVRNDNGTWEVEVR [N31D] it is 1.06 kcal/mol; for TYTYKLTDEEASRRAEDEWRNRGYDVRVRNLNGTWEVEVR [N31L] it is 1.51 kcal/mol.
The same measure for TYTYKLTDEEASRRAEDEWRNRGYDVRVRNENGTWEVEVR [N31E]: 1.12 kcal/mol; for TYTYKLTDEEASRRAEDEWRNRGYDVRVRNMNGTWEVEVR [N31M]: 1.31 kcal/mol.
In the case of TYTYKLTDEEASRRAEDEWRNRGYDVRVRNKNGTWEVEVR [N31K], the “folding stability dG” value came out at 1.16 kcal/mol.
The same measure for TYTYKLTDEEASRRAEDEWRNRGYDVRVRNANGTWEVEVR [N31A]: 0.996 kcal/mol; for TYTYKLTDEEASRRAEDEWRNRGYDVRDRNNNGTWEVEVR [V28D]: -0.612 kcal/mol; for TYTYKLTDEEASRRAEDEWRNRGYDVRKRNNNGTWEVEVR [V28K]: -0.078 kcal/mol.
The figure for TYTYKLTDEEASRRAEDEWRNRGYDVRNRNNNGTWEVEVR [V28N] is -0.678 kcal/mol.
As for TYTYKLTDEEASRRAEDEWRNRGYDVRMRNNNGTWEVEVR [V28M], the “folding stability dG” value was found to be 0.531 kcal/mol.
For TYTYKLTDEEASRRAEDEWRNRGYDVRQRNNNGTWEVEVR [V28Q], the “folding stability dG” value is -0.695 kcal/mol.
The same measure for TYTYKLTDEEASRRAEDEWRNRGYDVRGRNNNGTWEVEVR [V28G]: -0.651 kcal/mol; for TYTYKLTDEEASRRAEDEWRNRGYDVRLRNNNGTWEVEVR [V28L]: 0.62 kcal/mol; for TYTYKLTDEEASRRAEDEWRNRGYDVRFRNNNGTWEVEVR [V28F]: 0.162 kcal/mol.
Regarding TYTYKLTDEEASRRAEDEWRNRGYDVRRRNNNGTWEVEVR [V28R], the “folding stability dG” value is 1.38 kcal/mol.
As for TYTYKLTDEEASRRAEDEWRNRGYDVRWRNNNGTWEVEVR [V28W], the “folding stability dG” value amounted to 0.13 kcal/mol.
On to TYTYKLTDEEASRRAEDEWRNRGYDVRCRNNNGTWEVEVR [V28C], for which the “folding stability dG” value came to 0.766 kcal/mol.
The figure for TYTYKLTDEEASRRAEDEWRNRGYDVRSRNNNGTWEVEVR [V28S] is 0.536 kcal/mol; for TYTYKLTDEEASRRAEDEWRNRGYDVRIRNNNGTWEVEVR [V28I] it is 1.44 kcal/mol.
In the case of TYTYKLTDEEASRRAEDEWRNRGYDVRTRNNNGTWEVEVR [V28T], the “folding stability dG” value was determined as 0.683 kcal/mol.
Take TYTYKLTDEEASRRAEDEWRNRGYDVRHRNNNGTWEVEVR [V28H]: the “folding stability dG” value was -0.199 kcal/mol.
Turning to TYTYKLTDEEASRRAEDEWRNRGYDVRYRNNNGTWEVEVR [V28Y], the “folding stability dG” value was 0.207 kcal/mol.
Take TYTYKLTDEEASRRAEDEWRNRGYDVRVMNNNGTWEVEVR [R29M]: the “folding stability dG” value stood at 1.26 kcal/mol.
For the variant TYTYKLTDEEASRRAEDEWRNRGYDVRVNNNNGTWEVEVR [R29N], the “folding stability dG” value was determined as 1.17 kcal/mol.
The figure for TYTYKLTDEEASRRAEDEWRNRGYDVRVINNNGTWEVEVR [R29I] is 1.78 kcal/mol; for TYTYKLTDEEASRRAEDEWRNRGYDVRVHNNNGTWEVEVR [R29H] it is 1.49 kcal/mol; for TYTYKLTDEEASRRAEDEWRNRGYDVRVVNNNGTWEVEVR [R29V] it is 1.67 kcal/mol.
The same measure for TYTYKLTDEEASRRAEDEWRNRGYDVRVSNNNGTWEVEVR [R29S]: 1.55 kcal/mol; for TYTYKLTDEEASRRAEDEWRNRGYDVRVYNNNGTWEVEVR [R29Y]: 1.74 kcal/mol; for TYTYKLTDEEASRRAEDEWRNRGYDVRVWNNNGTWEVEVR [R29W]: 1.56 kcal/mol.
The figure for TYTYKLTDEEASRRAEDEWRNRGYDVRVKNNNGTWEVEVR [R29K] is 1.35 kcal/mol; for TYTYKLTDEEASRRAEDEWRNRGYDVRVCNNNGTWEVEVR [R29C] it is 1.06 kcal/mol.
Take TYTYKLTDEEASRRAEDEWRNRGYDVRVFNNNGTWEVEVR [R29F]: the “folding stability dG” value was found to be 1.63 kcal/mol.
As for TYTYKLTDEEASRRAEDEWRNRGYDVRVENNNGTWEVEVR [R29E], the “folding stability dG” value was found to be 0.726 kcal/mol.
On to TYTYKLTDEEASRRAEDEWRNRGYDVRVQNNNGTWEVEVR [R29Q], for which the “folding stability dG” value stood at 1.18 kcal/mol.
Regarding TYTYKLTDEEASRRAEDEWRNRGYDVRVANNNGTWEVEVR [R29A], the “folding stability dG” value was determined as 0.917 kcal/mol.
The same measure for TYTYKLTDEEASRRAEDEWRNRGYDVRVDNNNGTWEVEVR [R29D]: 0.413 kcal/mol; for TYTYKLTDEEASRRAEDEWRNRGYDVRVTNNNGTWEVEVR [R29T]: 1.86 kcal/mol.
Regarding TYTYKLTDEEASRRAEDEWRNRGYDVRVGNNNGTWEVEVR [R29G], the “folding stability dG” value turned out to be 0.418 kcal/mol.
The figure for TYTYKLTDEEASRRAEDEWRNRGYDVRVLNNNGTWEVEVR [R29L] is 1.4 kcal/mol; for TYTYKLTDEEASRRAEDEWRNRGYDVRVPNNNGTWEVEVR [R29P] it is -0.71 kcal/mol.
For TYTYKLTDEEASRRAEDEWRNRGYDVRVRDNNGTWEVEVR [N30D], the “folding stability dG” value stood at 1 kcal/mol.
The same measure for TYTYKLTDEEASRRAEDEWRNRGYDVRVRTNNGTWEVEVR [N30T]: 0.81 kcal/mol; for TYTYKLTDEEASRRAEDEWRNRGYDVRVRENNGTWEVEVR [N30E]: 1.7 kcal/mol.
The same measure for TYTYKLTDEEASRRAEDEWRNRGYDVRVRRNNGTWEVEVR [N30R]: 1.23 kcal/mol; for TYTYKLTDEEASRRAEDEWRNRGYDVRVRINNGTWEVEVR [N30I]: 1.35 kcal/mol; for TYTYKLTDEEASRRAEDEWRNRGYDVRVRYNNGTWEVEVR [N30Y]: 2.33 kcal/mol.
The figure for TYTYKLTDEEASRRAEDEWRNRGYDVRVRPNNGTWEVEVR [N30P] is 0.863 kcal/mol.
For TYTYKLTDEEASRRAEDEWRNRGYDVRVRHNNGTWEVEVR [N30H], the “folding stability dG” value amounted to 1.61 kcal/mol.
The same measure for TYTYKLTDEEASRRAEDEWRNRGYDVRVRLNNGTWEVEVR [N30L]: 1.6 kcal/mol; for TYTYKLTDEEASRRAEDEWRNRGYDVRVRVNNGTWEVEVR [N30V]: 1.43 kcal/mol.
The figure for TYTYKLTDEEASRRAEDEWRNRGYDVRVRANNGTWEVEVR [N30A] is 1.03 kcal/mol; for TYTYKLTDEEASRRAEDEWRNRGYDVRVRSNNGTWEVEVR [N30S] it is 1.1 kcal/mol.
The figure for TYTYKLTDEEASRRAEDEWRNRGYDVRVRKNNGTWEVEVR [N30K] is 1.34 kcal/mol; for TYTYKLTDEEASRRAEDEWRNRGYDVRVRWNNGTWEVEVR [N30W] it is 1.8 kcal/mol; for TYTYKLTDEEASRRAEDEWRNRGYDVRVRGNNGTWEVEVR [N30G] it is 0.639 kcal/mol.
For TYTYKLTDEEASRRAEDEWRNRGYDVRVRMNNGTWEVEVR [N30M], the “folding stability dG” value was 1.4 kcal/mol.
The same measure for TYTYKLTDEEASRRAEDEWRNRGYDVRVRQNNGTWEVEVR [N30Q]: 1.51 kcal/mol; for TYTYKLTDEEASRRAEDEWRNRGYDVRVRFNNGTWEVEVR [N30F]: 2.29 kcal/mol.
